The record followed here is patent US20230272086A1 (CHIA TAI TIANQING PHARMACEUTICAL GROUP, published 2023).

Test [1] concerns the target T1, human ST2 (hST2, Interleukin-1 receptor-like 1 isoform A) on cells (human, UniProt Q01638 19-556).
T1 sequence: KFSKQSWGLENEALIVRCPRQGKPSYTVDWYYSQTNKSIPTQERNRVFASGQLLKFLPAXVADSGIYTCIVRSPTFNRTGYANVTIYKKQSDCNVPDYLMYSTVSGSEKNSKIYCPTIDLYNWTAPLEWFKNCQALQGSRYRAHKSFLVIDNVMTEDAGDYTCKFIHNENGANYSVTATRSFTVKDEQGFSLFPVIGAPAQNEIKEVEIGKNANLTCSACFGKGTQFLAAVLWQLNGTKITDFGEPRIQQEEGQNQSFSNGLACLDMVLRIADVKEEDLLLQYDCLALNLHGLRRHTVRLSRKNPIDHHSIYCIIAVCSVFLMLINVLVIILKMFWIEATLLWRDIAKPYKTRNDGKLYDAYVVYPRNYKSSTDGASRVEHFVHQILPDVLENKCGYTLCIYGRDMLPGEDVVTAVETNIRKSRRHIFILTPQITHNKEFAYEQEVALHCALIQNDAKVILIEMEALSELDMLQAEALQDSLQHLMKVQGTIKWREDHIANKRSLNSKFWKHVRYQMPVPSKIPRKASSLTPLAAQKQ
As to the kind of experiment: cell-based or functional assay.

In test [2] the target is T1, human ST2 (hST2, Interleukin-1 …). Briefly: cell-based or functional assay. The source holds these as a separate data set.
Test [3] deals with T2, recombinant protein containing hST2 extracellular domain with mouse antibody heavy chain Fc tag (hST2-ECD-mFc) (human).
T2 construct: Used for SPR and for ELISA of chimeric and humanized antibodies; also called human ST2 antigen
T2 chain: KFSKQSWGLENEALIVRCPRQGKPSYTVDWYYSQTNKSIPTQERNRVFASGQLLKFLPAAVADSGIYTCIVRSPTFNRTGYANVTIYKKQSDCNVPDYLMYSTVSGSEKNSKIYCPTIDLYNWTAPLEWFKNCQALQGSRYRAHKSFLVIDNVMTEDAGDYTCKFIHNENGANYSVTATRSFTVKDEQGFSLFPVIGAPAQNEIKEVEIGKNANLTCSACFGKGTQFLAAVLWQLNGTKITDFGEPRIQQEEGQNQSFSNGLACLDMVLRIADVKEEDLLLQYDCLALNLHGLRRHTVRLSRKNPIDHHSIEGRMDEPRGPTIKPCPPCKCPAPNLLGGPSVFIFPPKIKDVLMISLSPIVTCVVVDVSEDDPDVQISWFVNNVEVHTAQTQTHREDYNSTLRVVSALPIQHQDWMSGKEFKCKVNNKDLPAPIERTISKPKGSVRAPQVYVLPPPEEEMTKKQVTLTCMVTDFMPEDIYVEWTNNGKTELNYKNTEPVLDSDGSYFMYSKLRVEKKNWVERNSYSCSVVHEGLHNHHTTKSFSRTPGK
Briefly: ELISA, plate coated with hST2-ECD-mFc. As to the method:
ST2 binding screening and analysis of antibodies were performed by ELISA using hST2-ECD-mFc (for assays of chimeric and humanized antibodies), hST2-ECD-hFc protein (for assays of hybridoma antibodies) and Cyno-ST2-his (Sino biological, 90915-C08H) as antigens. A high-adsorption 96-well plate (Costar, 9018) was coated with 2 µg/mL hST2-ECD-mFc or Cyno-ST2-his antigen at 100 µL/well and incubated overnight at 4° C. After the antigen not adsorbed was well washed off, the non-specific binding sites were blocked with a blocking buffer (PBS containing 2% bovine serum albumin). After the plate was washed three times with a washing buffer (PBS containing 0.05% (v/v) Tween 20), the anti-ST2 antibodies (serially diluted 3-fold from an initial concentration of 10 nM to 8 concentrations: 3.333 nM, 1.111 nM, 0.370 nM, 0.123 nM, 0.041 nM, 0.014 nM, 0.005 nM, and 0.002 nM) were added at 100 µL/well, and the plate was incubated at room temperature for 1 h. After the plate was washed with the washing buffer, a horseradish peroxidase (HRP)-conjugated secondary antibody was added, and the plate was incubated for another 60 min. After the plate was washed with the washing buffer, the substrate TMB solution (Thermo, 00-4201-56) was added at 100 µL/well, and the plate was incubated at room temperature for 2 min. A stop solution (2 N H₂SO₄) was added at 100 µL/well to terminate the reactions. Colorimetric signals were generated and read at 450 nm using a microplate reader (PE, Envision). The data were analyzed using GraphPad Prism5, and the EC₅₀ values were calculated.
(§1) The humanized antibodies hz31C81-1.1 (the amino acid sequence of the heavy chain set forth in SEQ ID NO: 75 and the amino acid sequence of the light chain set forth in SEQ ID NO: 81) and hz31C8-1.2 (the amino acid sequence of the heavy chain set forth in SEQ ID NO: 77 and the amino acid sequence of the light chain set forth in SEQ ID NO: 81) were subjected to affinity, binding, blocking and cell function analyses using the methods described in Example 4, Example 5, Example 6, Example 7, Example 8, Example 9 and Example 10.

Test [4] has as its target recombinant protein containing hST2 extracellular domain with human antibody heavy chain Fc tag (hST2-ECD-hFc) (human). Briefly: competition ELISA, coated hST2-ECD-hFc, antibody then biotin-labeled hIL33 Avitag (competitor). How it is done: Whether the anti-ST2 antibodies were able to block the binding of hIL33 to hST2 was determined based on ELISA. A high-adsorption 96-well plate was coated with 2 µg/mL hST2-ECD-hFc at 100 µL/well and incubated overnight at 4° C. After the antigen not adsorbed was well washed off, the non-specific binding sites were blocked with a blocking buffer (PBST containing 1% bovine serum albumin). After the plate was washed three times with a washing buffer (PBST, PBS containing 0.05% (v/v) Tween 20), the anti-ST2 antibodies (serially diluted 2-fold from an initial concentration of 66.67 nM to 8 concentrations) were added at 100 µL/well, and the plate was incubated at 37° C. for 1 h After the plate was washed 3 times with the washing buffer, 100 µL of biotin-labeled hIL33 Avitag (with a concentration of 0.1 µg/mL) was added to each well, and the plate was incubated at 37° C. for 1 h. After the plate was washed 3 times with the washing buffer, a 1:1000 diluted secondary antibody Avidin HRP (Jackson immunoresearch, 016-030-084) was added at 100 µL/well, and the plate was incubated at room temperature for 1 h After the plate was washed with the washing buffer, the substrate TMB solution (Thermo, 00-4201-56) was added at 100 µL/well, and the plate was incubated at room temperature for 3 min. 50 µL of a stop solution (2 N H₂SO₄) was added to terminate the reactions. Colorimetric signals were generated and read at 450 nm using a plate reader (PE, Envision). The data were analyzed using GraphPad Prism5, and the IC₅₀ values were calculated.
as §1

B1: RG6149 (antibody Ab2 in CN104334582, prepared in-house) (antibody, human IgG2, kappa, V domains shown)
VH: EVQLVQSGAEVKKPGESLKISCKGSGYSFTNYWIGWVRQMPGKGLEWMGIIYPGNSDTRFSPSFQGQVTISADKSITTAYLQWSSLKASDTAMYYCARHGTSSDYYGLDVWGQGTTVTVSS
VL: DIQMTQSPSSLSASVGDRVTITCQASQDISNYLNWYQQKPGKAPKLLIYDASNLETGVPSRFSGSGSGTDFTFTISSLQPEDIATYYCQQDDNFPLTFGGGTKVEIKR
notes: Control anti-ST2 antibody
As to B1, the “IC50, blocking of the IL33/ST2 signaling (NFκB luciferase reporter, HEK293T-hST2-NFκB-Luciferase cells, 50 pM hIL33 protein SEQ ID NO: 8)” value in test [1] amounted to 11.9 nM. Moreover, the “IC50, blocking of the IL33/ST2-induced IL5 secretion on CD4+ T cells (hIL33 plus IL2 co-stimulation)” value (“IC50, blocking … (hIL33 plus IL2 co-stimulation)” below) in test [2] amounted to 1.82 nM. For the same molecule, the concentration for a half-maximal effect (EC50) in test [3] worked out at 0.113 nM. In test [4], the half-inhibitory concentration (IC50) is 2.15 nM.

B2: Humanized 31C8-1.1 (antibody, human IgG2, kappa, V domains shown)
VH: EVQLVQSGAEVKKPGATVKISCKASGYIFIDSEMHWVQQAPGKGLEWMGAIDPETGDTVYAEKFQGRVTITADKSSSTAYMELSSLRSEDTAVYYCTGSTTDYYFAYWGQGTLVTVSS
VL: DIQMTQSPSSLSASVGDRVTITCRSSKSLLHSNGIIYLYWYQQKPGKAPKLLIYQLSNLASGVPSRFSSSGSGTDFTLTISSLQPEDFATYYCAQNLELPFTFGQGTKVEIKR
notes: also called hz31C8-1.1; hz31C81-1.1
Take B2: the “IC50, blocking … (hIL33 plus IL2 co-stimulation)” value in test [2] turned out to be 0.462 nM. For the same molecule, in test [3], the 50% effective concentration (EC50) was 0.0879 nM. Moreover, in test [4], the IC50 was 1.89 nM.

B3: Humanized 31C8-1.2 (antibody, human IgG2, kappa, V domains shown)
VH: QVQLVQSGAKVKKPGATVKISCKASGYIFIDSEMHWVQQAPGKGLEWMGAIDPETGDTVYAKKFKGRVTITADKSSSTAYMELSSLRSEDTAVYYCTGSTTDYYFAYWGQGTLVTVSS
VL: DIQMTQSPSSLSASVGDRVTITCRSSKSLLHSNGIIYLYWYQQKPGKAPKLLIYQLSNLASGVPSRFSSSGSGTDFTLTISSLQPEDFATYYCAQNLELPFTFGQGTKVEIKR
notes: also called hz31C8-1.2; hz31C81-1.2
B3: in test [2], the “IC50, blocking … (hIL33 plus IL2 co-stimulation)” value was 0.366 nM. Further, the EC50 in test [3] was determined as 0.0937 nM. In test [4], the IC50 worked out at 2.24 nM.

B4: GSK3772847 (antibody STLM208 in CN104411333, prepared in-house) (antibody, human IgG2, kappa, V domains shown)
VH: EVQLLESGGGLVQPGGSLRLSCAASGFTFSIYDMIWVRQAPGKGLEWVSSIRGEGGGTYYADSVKGRFTISRDNSKNTLYLQMNSLRAEDTAVYYCARDPWSTEGSFFVLDYWGQGTLVTVSS
VL: EIVLTQSPATLSLSPGERATLSCRASQSVDDDLAWYQQKPGQAPRLLIYDASNRATGIPARFSGSGSGTDFTLTISSLEPEDFAVYYCQQYITAPLTFGQGTKVEIKR
notes: Control anti-ST2 antibody
Take B4: the “IC50, blocking … (hIL33 plus IL2 co-stimulation)” value in test [2] worked out at 0.794 nM. For the same molecule, the EC50 in test [3] was 0.127 nM. The IC50 in test [4] worked out at 2.53 nM.

B5: Chimeric 31C8 (antibody, human IgG2, kappa, V domains shown)
VH: QVQLQQSGPELVRPGASVTLSCKASGYIFIDSEMHWVKQTPVHGLEWIGAIDPETGDTVYNQKFKGKATLTADKSSSTASMELSSLTSEDSAVYYCTGSTTDYYFAYWGQGTTLTVSS
VL: DIVMTQAAFSNPVTLGTSASISCRSSKSLLHSNGIIYLYWYLQKPGQSPQLLIYQMSNLASGVPDRFSSSGSGTDFTLRISRVEAEDVGVYYCAQNLELPFTFGSGTKLEIKR
notes: also called xi31C8
For B5, the “IC50, blocking of the IL33/ST2 signaling (NFκB luciferase reporter, HEK293T-hST2-NFκB-Luciferase cells, 50 pM hIL33 protein SEQ ID NO: 8)” value in test [1] was found to be 2.53 nM. In addition, in test [2], the “IC50, blocking … (hIL33 plus IL2 co-stimulation)” value came to 0.44 nM. Moreover, in test [3], the EC50 came to 0.0865 nM. For the same molecule, the IC50 in test [4] was 1.93 nM.

B6: Chimeric 3C6 (antibody, human IgG2, kappa, V domains shown)
VH: QVQLQQSGAEVVRPGASVTLSCKASDYTITDYEMHWVKQTPVHGLEWIGAIDPETGDTAYSQNFKGKATLTADESSSTAYMELSSLTSEDSAVYYCSRSATDYYFASWGQGTTLTVSS
VL: DIVMTQAAISNPVTLGTSASMSCRSSKSLLHSNGITYLYWYLQKPGHSPQLLIYQMSNLASGVPDRFSSSGSGTDFTLKISRVEAEDVGVYYCAQNLELPFTFGSGTKLEIKR
notes: also called xi3C6
Consider B6, for which, in test [1], the “IC50, blocking of the IL33/ST2 signaling (NFκB luciferase reporter, HEK293T-hST2-NFκB-Luciferase cells, 50 pM hIL33 protein SEQ ID NO: 8)” value was determined as 0.673 nM.

B7: Chimeric 26A1 (antibody, human IgG2, kappa, V domains shown)
VH: QVQLQQSGAELVRPGASVTLSCKASDYIFTDSEIHWVKQTLVHGLEWIGAIDPETGDTAYNQKFKGKATLTADKSSSTAYMELSSLTSEGSAVYYCSGSTTDCYFAYWGQGTTLTVSS
VL: DIVMTQAAFSNPVTLGTSASISCRSSKSLLHSNGIIYLYWYLQKPGQSPQLLIYQMSNLASGVPDRFSSSGSGTDFTLRISRVEAEDVGVYYCAQNLELPFTFGSGTKLEIKR
notes: also called xi26A1
For the molecule B7, the “IC50, blocking of the IL33/ST2 signaling (NFκB luciferase reporter, HEK293T-hST2-NFκB-Luciferase cells, 50 pM hIL33 protein SEQ ID NO: 8)” value in test [1] is 7.57 nM.

B8: Chimeric 7D1 (antibody, human IgG2, kappa, V domains shown)
VH: QVQLQQSGAELVRPGASVTLSCKASGYTFTDYEMHWVKQTPVHGLDWIGTIDPETGDTAYNQKFKGRATLTADKSSSTAYMELSSLTSEDSAVYYCTRYSYTNSPYGMDYWGQGTSVTVSS
VL: DVVMTQTPKFLLVSAGDRVTITCKASQSVSNDVAWYQQKPGQSPKLLIYYASNRYTGVPDRFTGSGYGTDFTFTINTVQAEDLAVYFCQQDYSSPYTFGGGTKLEIKR
notes: also called xi7D1
Take B8: the “IC50, blocking of the IL33/ST2 signaling (NFκB luciferase reporter, HEK293T-hST2-NFκB-Luciferase cells, 50 pM hIL33 protein SEQ ID NO: 8)” value in test [1] is 0.12 nM.
